We go through 1 molecule from patent US20230071422A1 (BEIJING WISDOMAB BIOTECHNOLOGY, published 2023).

In experiment [1] the target is T1, CD123 on the surface of CD123-positive cells (KG-1a, MV-4-11) (human, UniProt P26951 19-378).
T1 construct: whole, on cells; Endogenous CD123 on KG-1a (human acute myeloid leukemia) and MV-4-11 (human acute monocytic leukemia) cells; also called cell surface CD123 antigen; CD123 on the surface of MV-4-11 cells
Kind of experiment: flow cytometry on MV-4-11 cells, titration from 100 nM, goat anti-human IgG-FITC. On the procedure: MV-4-11 cells at the logarithmic phase of growth were used and resuspended to 2×10⁶ […] with PBS buffer containing 1% BSA after centrifugation. MV-4-11 cells were plated in a 96-well V-bottom plate at 100 μL/well, and the supernatant was removed after centrifugation. […] The antibodies were added to the wells containing cells and incubated at 4° C. for 1 hour. Then, the plate was washed three times with 200 μL PBS buffer. The goat anti-human IgG-FITC secondary antibody (ZF-0308, ZSGB-BIO) was added to the wells (100 μL/well), and incubated at 4° C. for 30 minutes in the dark. Then, the cells were washed three times with 200 μL of PBS buffer, and resuspended in 100 μL of PBS buffer to detect FITC channel by flow cytometer (ACEA, Novocyte).
(Flow cytometry measures light scatter and fluorescence of single cells or particles in a stream.)

The target of experiment [2] is T2, extracellular region of human CD3E with C-terminal His tag (hCD3E-his) (human (Homo sapiens), UniProt P07766 23-126).
T2 construct: Recombinant, expressed in HEK293 cells
Description: SPR, Biacore X100; antibody captured by anti-human IgG (Fc), hCD3E-his as analyte, 1:1 model. On the procedure:
(§1) The chip surface was regenerated by injecting 3M MgCl₂ solution at 10 μL/min for 30 s. Association rates (Kₒₙ) and dissociation rates (Koff) were calculated from association and dissociation sensorgrams fitted by a 1:1 binding model using Biacore X100 evaluation software version 2.0.1. The dissociation equilibrium constant (KD) was calculated as the ratio Koff/Kₒₙ.

Experiment [3] deals with T3, extracellular region of cynomolgus monkey CD3E with C-terminal His tag (mfCD3E-his) (cynomolgus monkey (Macaca fascicularis), UniProt Q95LI5 22-117).
T3 construct: Recombinant, expressed in HEK293 cells
T3 sequence: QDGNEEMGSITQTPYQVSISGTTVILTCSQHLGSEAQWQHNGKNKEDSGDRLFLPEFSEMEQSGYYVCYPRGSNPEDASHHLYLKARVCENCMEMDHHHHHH
Description: SPR, Biacore X100; antibody captured by anti-human IgG (Fc), mfCD3E-his as analyte, 1:1 model. Here is the method:
as §1
In general terms: SPR reads the build-up and loss of mass on a sensor chip optically.

In experiment [4] the target is T4, extracellular region of human CD123 subtype 1 with C-terminal His tag (hCD123-SP1-his) (human (Homo sapiens), UniProt P26951 19-305).
T4 construct: Recombinant, expressed in HEK293 cells
T4 sequence: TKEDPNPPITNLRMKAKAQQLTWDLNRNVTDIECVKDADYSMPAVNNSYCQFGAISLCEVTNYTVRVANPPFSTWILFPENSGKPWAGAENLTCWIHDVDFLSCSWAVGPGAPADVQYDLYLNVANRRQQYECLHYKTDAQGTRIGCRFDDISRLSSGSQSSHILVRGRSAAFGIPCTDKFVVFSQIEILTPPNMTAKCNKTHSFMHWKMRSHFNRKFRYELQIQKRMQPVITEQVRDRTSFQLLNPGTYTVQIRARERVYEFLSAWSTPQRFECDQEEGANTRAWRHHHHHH
Description: SPR, Biacore X100; antibody captured by anti-human IgG (Fc), hCD123-SP1-his as analyte, 1:1 model. On the procedure:
The affinity of anti-CD123 antibodies was determined by surface plasmon resonance using Biacore X100. Related reagents and consumables such as Amino Conjugation Kit (BR-1000-50), Human Antibody Capture Kit (BR-1008-39), CM5 Chip (BR100012) and 10×HBS-EP (BR100669) buffer with pH 7.4 were all purchased from GE healthcare. According to the instructions in the kits, 1-Ethyl-3-(3-dimethylaminopropyl) carbodiimide hydrochloride (EDC) and N-Hydroxysuccinimide (NHS) was used to activate the surface of the carboxylated CM5 chip, and the anti-human IgG (Fc) antibody (capture antibody) was diluted to 25 μg/mL with 10 mM, pH5.0 sodium acetate, followed by an injection with a flow rate at 10 μL/min to achieve a coupling volume of approximately 10,000 response units (RU). Following the injection of the capture antibody, 1 M ethanolamine was injected to block unreacted groups. […] The chip surface was regenerated by injecting 3M MgCl₂ solution at 10 μL/min for 30 s. Association rates (Kₒₙ) and dissociation rates (Koff) were calculated from association and dissociation sensorgrams fitted by a 1:1 binding model using Biacore X100 evaluation software version 2.0.1. The dissociation equilibrium constant (KD) was calculated as the ratio Koff/Kₒₙ.

As usually defined, the Kd is the constant that tells how readily two partners part at equilibrium. The koff is the first-order rate constant of dissociation. Usually kon stands for a measure of how fast the partners come together.

T2 sequence (P07766 other isoform, or with tags, fused parts or gaps limits assumed): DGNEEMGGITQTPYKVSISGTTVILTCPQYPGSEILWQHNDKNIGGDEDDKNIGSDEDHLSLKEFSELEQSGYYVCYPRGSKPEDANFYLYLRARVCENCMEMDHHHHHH

B1: bispecific antibody CD3E×CD123 (bispecific antibody, human IgG1, kappa)
heavy 1: EVQLVESGGGLVQPGGSLRLSCAASGFTFSNAWMHWVRQAPGKGLEWVGQIKDKSNNYATYYADAVKGRFTISRDDSKNSLYLQMNSLKTEDTAVYYCRYVHYGVRFFYTMDVWGQGTTVTVSSASTKGPSVFPLAPSSKSTSGGTAALGCLVKDYFPEPVTVSWNSGALTSGVHTFPAVLQSSGLYSLSSVVTVPSSSLGTQTYICNVNHKPSNTKVDKRVEPKSCDKTHTCPPCPAPEFEGGPSVFLFPPKPKDTLMISRTPEVTCVVVDVSHEDPEVKFNWYVDGVEVHNAKTKPREEQYNSTYRVVSVLTVLHQDWLNGKEYKCKVSNKALPASIEKTISKAKGQPREPQVYTLPPCREEMTKNQVSLWCLVKGFYPSDIAVEWESNGQPENNYKTTPPVLDSDGSFFLYSKLTVDKSRWQQGNVFSCSVMHEALHNHYTQKSLSLSPGK
heavy 2: QVQLVQSGAEVKKPGASVKVSCKASGYTFTSYDVSWVRQAPGQRLEWMGWVYPVDGSTKFNEKFKGRVTLTADRSSSTAYMELSSLRSEDTAVYYCARLTYGDFGDAMDYWGQGTLVTVSSASTKGPSVFPLAPSSKSTSGGTAALGCLVKDYFPEPVTVSWNSGALTSGVHTFPAVLQSSGLYSLSSVVTVPSSSLGTQTYICNVNHKPSNTKVDKRVEPKSCDKTHTCPPCPAPEFEGGPSVFLFPPKPKDTLMISRTPEVTCVVVDVSHEDPEVKFNWYVDGVEVHNAKTKPREEQYNSTYRVVSVLTVLHQDWLNGKEYKCKVSNKALPASIEKTISKAKGQPREPQVCTLPPSREEMTKNQVSLSCAVKGFYPSDIAVEWESNGQPENNYKTTPPVLDSDGSFFLVSKLTVDKSRWQQGNVFSCSVMHEALHNHYTQKSLSLSPGK
light: DIVMTQTPLSLSVTPGQPASISCKSSQSLVHSNDNTYLTWYLQKPGQSPQLLIYKVSNRFSGVPDRFSGSGSGTDFTLKISRVEAEDVGVYYCGQGTQYPFTFGQGTKLEIKRTVAAPSVFIFPPSDEQLKSGTASVVCLLNNFYPREAKVQWKVDNALQSGNSQESVTEQDSKDSTYSLSSTLTLSKADYEKHKVYACEVTHQGLSSPVTKSFNRGEC
notes: also called CD3×CD123 BsAb; CD3E×CD123 BsAb
Regarding B1, the Kd in experiment [1] turned out to be 7.08 nM; in experiment [2] it was 14.1 nM; in experiment [3] it was 11.5 nM; in experiment [4], 0.178 nM. In addition, the values for the off-rate (koff) in experiment [2], in experiment [3] and in experiment [4] were 0.000797 s⁻¹, 0.00157 s⁻¹ and 4.02e-05 s⁻¹, respectively. Also, the results for the kon in experiment [2], in experiment [3] and in experiment [4] were 56500 M⁻¹ s⁻¹, 137000 M⁻¹ s⁻¹ and 225000 M⁻¹ s⁻¹, respectively.
